In the DeepSol protein solubility set:

assay: soluble on expression in E. coli; label from the status in PepcDB or PDB records

Row | Sequence | soluble on expression in E. coli
1 | MEKKTANDVVTLARAQDRLTTLEYIEAIFEDFLEFHGDRYFADDLAVVGGVATLQGKPVTVVGIQKGRNLPENIERNFGSPNPEGYRKALRLMKQAEKFNRPVITFVNTAGAYCGIGAEERGEGEAIAQNLLEMSDLKVPIISVIIGEGGSGGALALAVADEVWMLEHTIYAVLSPEGFASILWKDGSRAKEAAELMKITATELKELAIVDKVIPEVMNGQPLEQAKINRMLQKAFISKLTELAKLDTETLLEKRYQRFRKY | not soluble
2 | MDQNLKEQILELKRQKNAIILAHYYQRPEVQEIADFIGDSYNLSKIAKENDADTIVFCGVKFMAESAKVLSPQKKVLLPQPKAGCPMADMADAEGLAALKAKHPNAKVVSYINSSVEVKALCDTCCTSSNAAKIVKRIDSDEIIFLPDKNLGSYVQEMVPEKNIILWDGFCKVHNMIIPTDIEEMKNKYGDMKILAHPECWKPVRDMADFIGSTGAMIDYAEKDTTSDKYLVVTETGIMYKMQERVPNKTFYPLRSMVCVNMKATHLEDVYNSLVNSTFEINIEENLRQKALTSLENMLILGRLEHHHHHH | not soluble
3 | MGMACLTMTEMEATSTSPVHQNGDIPGSANSVKQIEPVLQVYLYHSLGQAEGEYLKFPSGEYVAEEICVAASKACGITPVYHNMFALMSETERIWYPPNHVFHIDESTRHDILYRIRFYFPHWYCSGSSRTYRYGVSRGAEAPLLDDFVMSYLFAQWRHDFVHGWIKVPVTHETQEECLGMAVLDMMRIAKEKDQTPLAVYNSVSYKTFLPKCVRAKIQDYHILTRKRIRYRFRRFIQQFSQCKATARNLKLKYLINLETLQSAFYTEQFEVKESARGPSGEEIFATIIITGNGGIQWSRGKHKESETLTEQDVQLYCDFPDIIDVSIKQANQECSNESRIVTVHKQDGKVLEIELSSLKEALSFVSLIDGYYRLTADAHHYLCKEVAPPAVLENIHSNCHGPISMDFAISKLKKAGNQTGLYVLRCSPKDFNKYFLTFAVERENVIEYKHCLITKNENGEYNLSGTKRNFSNLKDLLNCYQMETVRSDSIIFQFTKCCPPKPKDKSNLLVFRTNGISDVQISPTLQRHNNVNQMVFHKIRNEDL | not soluble
4 | MIINKPSRVRPDGRGKVTGELKYMTDLSFPGMLYGKVLRSAYPHAEIVSVCTIKAEKMEGVQAVVTHKDVPGLNRFGIVIPDQPVLCEDRVRYVGDAIAAVAAETEEIAEAALELIQVEYKELEVMDSPEKALRPNAQRLHEDGNILHRAFFSNGDVEEGFQASDTVFEETYELPRQMHTYMETEGGVAVPEDDGGFTMYAGTQHGYKDRFQLARIFDIPEEKIRIVSSPMGGSFGGKDELNIQPYAALLALKSGRPVKIHQTRKESVRSGIKRHPMKITIKTGADHSGNLLAHDVKIVADTGAYATLGPAVLDFSVEHAAGPYRIPNIRTEGISVFTNNGVAGEFRGFGGNQITFALETHLDRLSGMLGIDPLELRRKNIRKPHDLGPLEHRIAPTDGAAQVLNAISKSPILKKTSRNCGYLQRGTGAAITMHGGGLGFGRMDAAGGRLSLSSEGKITASFGFEECGQGILAAIEQIVMEELGCAAEDISIVIGDTAKVPKSGSSTASRGTSMVWHAIQRLKKPFLAQLKKRAAEWSGCSAENLIPGAAGLRDKNTKALVVTYKELAEKGPLAEETAFDFPTTPDPVVGGHFLYSFGAAAVEVEVDLLTGDVKLIDCEHAIAAGPVVSPQGYRGQIEGGAAMALGYTLMEEAKMTDGRYAAENLDHYLIPGIKDVPDMKLIAIEDLMKGDVYGPRGVGEIGTIAITPAIVKAVHDAVGCWINKLPISREELLEAIDRKGLKQWT | not soluble
5 | GPLGSMIVFVRFNSSHGFPVEVDSDTSIFQLKEVVAKRQGVPADQLRVIFAGKELRNDWTVQNCDLDQQSIVHIVQRPWRK | soluble
6 | MGHHHHHHSHMIFLSTLFWYNKLMNKSTFSLNDTAWVDFYQLQNPRQNENYTFPAIIICPGGGYQHISQRESDPLALAFLAQGYQVLLLNYTVMNKGTNYNFLSQNLEEVQAVFSLIHQNHKEWQINPEQVFLLGCSAGGHLAAWYGNSEQIHRPKGVILCYPVTSFTFGWPSDLSHFNFEIENISEYNISEKVTSSTPPTFIWHTADDEGVPIYNSLKYCDRLSKHQVPFEAHFFESGPHGVSLANRTTAPSDAYCLPSVHRWVSWASDWLERQIKN | soluble
7 | MSLTGSSSITRTCAVIFSSGFRFMDLLHAVPYAALWHGRFEHPVLRIACILSIAAGNRVPICFESITRRIRPMTLHRPAPHPVFSLAETSGPVLGDLPGWKLSDLYPSGDSPEYKRDLEKAASMAAAFEAKWKDKLESAAKAKGEDGIGAALKDYEALDDLIGRIGSFAGLTYFSDTSNPANGKLYGDAQAKLTEISAHLLFFTLELNRIDDAVMDACMANDAAAGHYRPWLVDLRKDKPHQLDDQLEQLFLEKSMTSAAAFNRLFDETMADLRFDIDGASLSLEVTLNMLQEPEPETRRKAAEALSATFKDNLRVFTLITNTLAKDKDISDRWRNFEDIADSRHLANRVERDVVDALAAAVKKAYPRLSHRYYAMKAKWLGMEQMNYWDRNAPLPDTSNTIIPWDEAKDTVLSAYGNFAPEMADIARRFFDEEWIDAPARPGKAPGAFAHPTVPSAHPYVLVNYLGKPRDVMTLAHELGHGVHQVLAGQQGALMCATPLTLAETASVFGEMLTFRKLLDDTKDIRERKAMLARKVEDMINTVVRQIAFYEFERKLHTARKEGELTSEQIGELWLSVQAESLGPAIRISEGYETWWTYIPHFIHSPFYVYAYAFGDCLVNSLYAVYQKAEAGFQEKYFELLKAGGTKHHSELLKPFGLDATDPSFWDKGLSMIEGLIDELEELDRKQAEGHHHHHH | soluble
8 | REKGIVEPSCGVTANAIMKLFLDKDGFSYCFENEQTLSLEQLQERLSCMPECKSFVLRVNDGALGHAYIVDIPKGENSCRPAFLYQSDLGEGVTRKLRFEDWMTHKALTPILLDDICNYFSCMSQNKTDLEQIATLFDIDGNVKMLRKENIQYQKHDNFSFQLFEYDTDNIEKNIEIIKSLCSGAAALEHHHHHH | soluble
9 | MDWEERENPKRLVKTFAFPNFREALDFANRVGALAERENHHPRLTVEWGRVTVEWWTHSAGGVTEKDREMARLTDALLQR | soluble
10 | MGHAKHLIDGNIETFWHSRWQGGSDPLPYEIIIDMNHRVKIAQIELLPRGRGSNNPIKVVRFEASEDGTNWESIGQFGFTNQDAALKYYVKSSTARYIKLVIPDGVGNGTVAAIRELDVRGTVVNLEHHHHHH | not soluble
11 | HHHHDYDIPTTENLYFQGHMTIHKKGQAHWEGDIKRGKGTVSTESGVLNQQPYGFNTRFEGEKGTNPEELIGAAHAACFSMALSLMLGEAGFTPTSIDTTADVSLDKVDAGFAITKIALKSEVAVPGIDASTFDGIIQKAKAGCPVSQVLKAEITLDYQLKS | soluble
12 | MLASIPLKDIQIQDRFWKERLDLVRKEIIPYQWEAMNDRVPNAEPSHCIENYRIAAGQAQGSFYGEVFQDSDLAKWLEAVAYVLSFQPDPKLEKLADEAIELVCAAQQSDGYLNTFFTIKEPDQRWRNLREGHELYCAGHMMEAAVAYFEATGKRRLLDAMMRFADLICNTFGPEEGKIHAYPGHEEVELALFRMYRATGVRRYLELSAYFINCRGTGENYFRKENDRPGYLPIWGSMDTNSDMSYYQAHQPVREQKQAAGHAVRAMYLYSAMADLAGELKDEGLLNACKTLWNNVTERQMYVTGGVGASGILERFTTDYDLSNEMAYAESCASIGLMLFGLRMNRVTRQAQYFDPVERALYNTVLASVALDGKSFFYVNPLEVWPKACMPYTSKEHVKPVRQPWFSCACCPPNVARTFASLGQYIWAQDSQRVYLNLFISSTVKAKNGAILKLETEFPMGNVLKITSDQVLELAVRIPGYGKNFRANVSYRKENGYGVFELEAGKELEIQFDAPACFIRANPEVRACSGKVCIQRGPVVYCLEEIDNGSNLSALSVDTAVSPGERESDIPGGLMITASGKRRRPWADDKLYGEIPSQYEETVLQAVPYAFWGNREKGEMTVWIRESLEHHHHHH | not soluble
13 | MNRSRDKVRCALNHQNAGSIPVDFGSTAVTGIHCRIVEALRNYYGLAPRPVKIVDAFQMLGEIDAELAEKIGVDCIGIGGPKDIFDLDTTRMHEQTTPWGQRVLVPEAMDLTPDMRGDVYVYAGGDQNYPPSAVMPKGCYFINAIERQQPIEEDRLDPEDNVEEFGLLTENDLAYYCAEADKAYQTGRAVVASFGGTALGDVAFVPGMGLKQPKGIRSVVEWYMSTAMRQDYLHQVFEKEIDIAIANYEKLWAALGDKIDVVLTCGTDFGSQESQFCSIDTFRELWLPHYRRMNDWIHQHTTWKIFKHSCGAIIPILPGLIEAGFDIINPVQINAKDMDSRRLKEEFGSQLTFWGGGVDTQKILPFGTPDEIRRHVMGQCEILGRDGGFVFNAVHNVQANVPVDNVVAMFDALKDISLEHHHHHH | not soluble
14 | MGSSHHHHHHGKTIFVIVPTNEEQVAFLEALAKQDELNFDWQNPPTEPGQPVVILIPSDMVEWFLEMLKAKGIPFTVYVEEGGSENLYFQGGGGGGAKDCITRGPNSMIAWKYEDGSFQCDNCIGAHAVGVSSGTVRRRWTEYDKDRNILNSFVEEHREGKKLVLHDESRGMSILLRSDLSGIRTEGEQTFRQLYSGAFISVVDCT | soluble
15 | MAGLKYEDAGVNIEAGNQAVERMKQHVKKTFTQDVLTGLGSFGSLYSLKNIINNYDDPVLVQSIDGVGTKTKVAVMCGKFENLGYDLFSAATNDIVVMGAKPITFLDYVAHDKLDPAIMEELVKGMSKACAECGVSLVGGETAEMPGVYQAGEIDMVGVITGIVDRKRIINGENIKEGDIVFGLSSSGLHTNGYSFARKLFFDVAGNKHTDTYPELEGKTIGDVLLEPHINYTNIIHDFLDNGVDIKGMAHITGGGFIENIPRVLPQGLGAQIDKDSFATPAIFKLMQRIGDISEFEMYRSFNMGIGMTIIASQDQFDKMQELAKKHTNTKLYQIGKITNSGKVEII | soluble
16 | MGSDKIHHHHHHMSMKISEKKFNDRVGDGIQDSFMRGAVSSAQTRLYTNRLKAADELGNWEEWRELGEEIRQHTLENLDYYLMQLSENVSKRGGHVYFAKTKEEAAKYIQDVAKKKQAKKVVKSKSMVTEEISMNHALEEIGCEVLESDLGEYILQVDNDPPSHIIAPALHKNRTQIRDVFKEKLGYENSDDPYEMTKFVRKQLREKFMDAEIGVTGCNFAVANTGSLCLVTNEGNADLVMSIPKTQIAVMGMERMVPTMEELDVLVGLLCRSAVGQKLTSYVTVAGPIQEEEVDGPEEFHLVVVDNGRSQILGSEFRQVLQCIRCAACVNVCPVYRHVGGHSYGSIYSGPIGAVLTPLLGGYDDYKELPYASSLCGACTEACPVKIPLHDLLLKHRQVIVEQEGRAPLAEKLAMKMFSMGASSAALYKMGSKMAPAAMSPFTSGNRVSKGVGPLKNWTDIREFPAPSKERFRDWYKDHKKGGDK | not soluble
17 | MNIYVLMKRTFDTEEKIVIKNGAIYDGEAEFIINPYDEYAIEEAIQVRDAQGGEVTVVTVGGEDSEKELRTALAMGCDKAVLINIEDDVENGDQFTTAKVLAEYLKDKDADLILGGNVAIDGASGQVGPRVAEALNIPYVTTITKLEIDGTNVKIERDVEGDTEVVETSLPVLVTAQQGLNEPRYPSLPGIMKAKKKPLEELELDDLDLEEDDVEAKTKTIEIYLPPKKDAGKVLQGELQDQVKELVSLLHTEAKVI | not soluble
18 | MRAVFRTDIGQIREHNEDSGGVFVNQSGQYLAVVADGMGGHRAGDVASSMAVAYLQERWEKESSLASPAEAEQWLKTQIAAANEQLFRHACSHPECQGMGTTVVAAVCANSFATVAHIGDSRCYVLNKSGIQQLTDDHSLVNELVKSGQLSKEAAEHHPRKNVLLRALGTEPAVKIDVKTVALDEGDMLLLCSDGLSNKVPEADMIHILTGAGTLEEKAEALIQLANGRGGEDNISLAVIDVSAEREGG | soluble
